According to PMC5097169 (2016):

T1: GST fusion to Xenopus laevis CENP-A amino terminus (amino acids 1–50) (Xenopus laevis (African clawed frog), UniProt Q569M3)
T1 chain: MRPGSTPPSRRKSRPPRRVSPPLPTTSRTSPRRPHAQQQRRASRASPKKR


Experiments:
[1] = molecular target: Flag RbAp46 (Xenopus, recombinant) (Xenopus laevis (African clawed frog), UniProt Q8AVH1); experiment: GST-CENP-A tail resin pull-down (bridged), Coomassie; inferred from RbAp46-dependent recovery of Hat1 on the immobilized GST-CENP-A N-terminal tail (1-50); no direct two-protein test
[2] = molecular target: T1, GST fusion to Xenopus laevis CENP-A …; experiment: GST-tail resin pull-down, Coomassie

Row | binding result [1] | binding result [2] | Binder
1 | binds |  | Flag Hat1 (Xenopus, recombinant) (protein) MEKKLAEYKCNTNEAIQLKLVRFPEDIEDESMTFNPEYSHQIFGDEEVAFGYKGLKILLYYSAGNLSTMFRVQYSSKVNDKFDLVQPDDVENKIHELIPAGFCSGTDDFITLLEKEVNFKPFGTIVHTYTVHNEDAGEDISYQIYKADMTSPGFREYHERLQTFMMWFIETASYIDVDDEKWDYFLVFEKYNKDGATLFATVGYMTVYNYYVYPDKTRPRVSQMLVLPPFQGEGHGAQLMETVHRYYVSAPNILDITAEDPSENFVRLRDFVLVKLCQNLPCFSPEKLLCGFSKEMVTEAQEKLKINKKHARRVYEILRLRATDMSDPEKSKAYRLDVKKRLVGPYKKNQREMAKMQQCLRPEELTNQMNQIDLNTQHEQLEESYQQLVEEYRRIVERLAQA
2 |  | binds | Flag RbAp46 (Xenopus, recombinant) (protein) MANKEMFEDTVEERVINEEYKIWKKNTPFLYDLVMTHALEWPSLTVQWLPDVTRPEGKDYALHWLVLGTHTSDEQNHLVVARVQVPNDDAQFDASHYDSEKGEFGGFGSVSGKIETEIKINHEGEVNRARYMPQNPCIIATKTPSADVLVFDYTKHPSKPDPSGECSPDLRLRGHQKEGYGLSWNSNLSGHLLSASDDHTVCLWDISAGPKEGKVVDAKAVFTGHSAVVEDVAWHLLHESLFGSVADDQKLMIWDTRSNTTSKPSHSVDAHTAEVNCLSFNPYSEFILATGSADKTVALWDLRNLKLKLHSFESHKDEIFQVHWSPHNETILASSGTDRRLNVWDLSKIGEEQSAEDAEDGPPELLFIHGGHTAKISDFSWNPNEPWVICSVSEDNIMQIWQMAENIYNDEEPDIPASELEAQGS
